Experimental data from US20080280300A1, “Method” (PLASTICELL LIMITED, priority 2005, published 2008).

Test system: myeloid progenitors derived from mouse embryonic stem cells (D3 ES cells) on microcarriers
Assay: mESC-based cell assay for regenerative drugs: conversion of myeloid progenitors to macrophage (DQ-ovalbumin)
Settings: 48 h, triplicate, basal level 1%
Protocol: A screen was performed to identify regenerative drugs capable of stimulating the myeloid lineages of the haematopoietic system. The screen was performed by using a series of culture steps to differentiate mouse embryonic stem cells (mESC) seeded on microcarriers into progenitors of the myeloid lineages, and subsequently subjecting these to culture conditions in the presence or absence of the lineage specific haematopoietic growth factors TPO, M-CSF and IL-5, or the control compound Vitamin C which is reported to affect cell survival but is not a haematopoietic growth factor. After 48 hours the effect on myeloid cell differentiation was assessed using the appearance of macrophages as a surrogate assay. This screen identified TPO and M-CSF as haematopoietic regenerative drugs capable of stimulating the myeloid lineage.
On the day preceding day 1 of the experiment, approximately 1.5×10^4 biotinylated micocarriers equilibrated in medium A (IMDM (Gibco), 15% KOSR, 1% NEAA, 0.5% pen/strep, 0.1 mM β-ME, 1000 U/ml LIF and 1.5×10^−4 M, 1-thioglycerol (MTG; Sigma)) were added to 100 ml of medium A containing approximately 4.5×10^6 ES cells, split into three equal aliquots placed in wells of a 100 mm square petri dish (Bibby Sterilin) and incubated overnight.
In order to prepare myeloid progenitors a two step method was employed. Beads seeded with mESC as described above were incubated in IMDM containing […] retinoic acid for 72 h. The beads were then washed in PBS and transferred to Stemline™ Haematopoietic Expansion Medium (Sigma) containing 40 ng/ml SCF, 2.5 ng TGFβ1, 5 ng/ml BMP2 and 20 ng/ml TPO and incubated for 48 h:
Beads blearing myeloid progenitors prepared as described above were mixed, washed in PBS and transferred to the Test Growth Medium (Stemline™Haematopoietic Expansion Medium (Sigma) supplemented with 30 ng/ml IL-3 and 20 ng/ml IL-6). Equal aliquots of approximately 100 beads were dispensed into the wells of a 48 well plate and incubated in the presence or absence of 50 μg/ml Vitamin C, 10 ng/ml IL-5, 20 ng/ml TPO and 20 ng/ml M-CSF. The screen was carried out in triplicate in wells of separate plates placed in the same incubator.
After 48 h, 1 mg of the macrophage assay reagent DQ-ovalbumin (Molecular Probes) was made up in 0.4 ml PBS and added to each well at a dilution of 1:100. Following incubation for at least 4 h, the medium was aspirated and replaced with PBS. The samples were examined on a Nikon TE2000-S inverted epifluorescent microscope using a-FITC filter set to quantitate microcarriers bearing large, round cells internally labelled with green fluorescence.
The results of the screen are reported as the average number (per cent) of microcarriers that were decorated with macrophage. […]

[1] = 20 ng/ml TPO or M-CSF in Test Growth Medium (IL-3, IL-6)

Row | Molecule | average conversion to macrophage (average number (per cent) of microcarriers decorated with macrophage) [1] [%] | other results
1 | O=C1O[C@H]([C@@H](O)CO)C(O)=C1O [Vitamin C, Ascorbic acid, reference compound] |  | average conversion to macrophage (average number (per cent) of microcarriers decorated with macrophage) (50 μg/ml Vitamin C in Test Growth Medium (IL-3, IL-6)): 0%
2 | IL-5: mouse interleukin 5 (R&D Systems), haematopoietic growth factor (protein, UniProt P04401 21-133, looked up) Interleukin-5: MEIPMSTVVKETLTQLSAHRALLTSNETMRLPVPTHKNHQLCIGEIFQGLDILKNQTVRGGTVEMLFQNLSLIKKYIDRQKEKCGEERRRTRQFLDYLQEFLGVMSTEWAMEG |  | average conversion to macrophage (average number (per cent) of microcarriers decorated with macrophage) (10 ng/ml IL-5 in Test Growth Medium (IL-3, IL-6)): 0%
3 | M-CSF: murine macrophage colony stimulating factor (R&D Systems), haematopoietic growth factor (protein, UniProt P07141 33-552, looked up) Macrophage colony-stimulating …: KEVSEHCSHMIGNGHLKVLQQLIDSQMETSCQIAFEFVDQEQLDDPVCYLKKAFFLVQDIIDETMRFKDNTPNANATERLQELSNNLNSCFTKDYEEQNKACVRTFHETPLQLLEKIKNFFNETKNLLEKDWNIFTKNCNNSFAKCSSRDVVTKPDCNCLYPKATPSSDPASASPHQPPAPSMAPLAGLAWDDSQRTEGSSLLPSELPLRIEDPGSAKQRPPRSTCQTLESTEQPNHGDRLTEDSQPHPSAGGPVPGVEDILESSLGTNWVLEEASGEASEGFLTQEAKFSPSTPVGGSIQAETDRPRALSASPFPKSTEDQKPVDITDRPLTEVNPMRPIGQTQNNTPEKTDGTSTLREDHQEPGSPHIATPNPQRVSNSATPVAQLLLPKSHSWGIVLPLGELEGKRSTRDRRSPAELEGGSASEGAARPVARFNSIPLTDTGHVEQHEGSSDPQIPESVFHLLVPGIILVLLTVGGLLFYKWKWRSHRDPQTLDSSVGRPEDSSLTQDEDRQVELPV | 6 | 
4 | TPO: murine thrombopoietin (R&D Systems), haematopoietic growth factor (protein, UniProt P40226 22-356, looked up) Thrombopoietin: SPVAPACDPRLLNKLLRDSHLLHSRLSQCPDVDPLSIPVLLPAVDFSLGEWKTQTEQSKAQDILGAVSLLLEGVMAARGQLEPSCLSSLLGQLSGQVRLLLGALQGLLGTQLPLQGRTTAHKDPNALFLSLQQLLRGKVRFLLLVEGPTLCVRRTLPTTAVPSSTSQLLTLNKFPNRTSGLLETNFSVTARTAGPGLLSRLQGFRVKITPGQLNQTSRSPVQISGYLNRTHGPVNGTHGLFAGTSLQTLEASDISPGAFNKGSLAFNLQGGLPPSPSLAPDGHTPFPPSPALPTTHGSPPQLHPLFPDPSTTMPNSTAPHPVTMYPHPRNLSQET | 6 | 
